The record followed here is article PMC5025888 (Scientific Reports, 2016).

This experiment deals with NS1 of rgPR8-NS1-WT virus (Influenza A virus A/Puerto …, UniProt P03496). Nature of the experiment: Western blot. Conditions: one partner purified. Background: A western blot detects proteins with antibodies after separation by electrophoresis.
Sequence of NS1 of rgPR8-NS1-WT virus (P03496 whole entry): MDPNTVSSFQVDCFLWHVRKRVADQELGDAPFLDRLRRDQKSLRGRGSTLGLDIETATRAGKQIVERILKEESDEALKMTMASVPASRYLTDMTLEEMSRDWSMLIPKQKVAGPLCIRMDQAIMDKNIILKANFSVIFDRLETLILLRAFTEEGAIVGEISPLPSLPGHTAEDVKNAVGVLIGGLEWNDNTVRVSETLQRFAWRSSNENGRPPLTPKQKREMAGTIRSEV

B1: monoclonal antibody 2H6 (antibody, V domains shown)
VH: DVKLVESGGGLVNLGGSLKLSCAASGFTFSRYYMSWVRQTPEKRLELVAAINHNSGRTYYSDTVKGRFTISRDNAKNTLYLQMSSLKSEDTALYYCTRHPLIYHGNYLDYWGQGTTLTVSS
VL: DIVLTQSPASLAVSLGQRATISCKASQSVDYDGDSYVTWYQQKPGQPPKLLIYVASNLESGIPARFSGSGSGTDFTLNIHPVEEEDAATYYCQQSNEDPWTFGGGTKLEIK
Take B1: the binding result is “binds”.
